Patent US20240277857A1 (NBIOS, published 2024)

Columns and labels:
[1] = molecular target: T1, coil C-mCherry-6xHis fusion protein (human); experiment: ITC, C′-GFP injected into C-mCherry, PBS pH 7.5, 25 °C
T1 construct: also called mCherry-C; wild-type mCherry-C; not shown: mCherry red fluorescent protein fused to the C-terminal of coil C
T1 chain: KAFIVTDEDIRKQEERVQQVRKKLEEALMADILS
Procedure: ITC analysis was conducted using MicroCal Auto-iTC200 (Malvern Panalytical) at the Korea Basic Science Institute (Ochang, Korea). […] For titration, 2 μL of C′-GFP was injected to C-mCherry 19 times at 25° C. for 4 seconds, with 150-seconds intervals, and data were analyzed using the MicroCal Origin 7.0 software. N is the stoichiometric number, KD is the binding affinity, and AH and AS are changes in enthalpy and binding entropy, respectively.

[2] = molecular target: T2, C_Ala27 (A27C) coil C mutant fused to mCherry (human); experiment: FRET between GFP and mCherry, equimolar mixture, 4 µM, plate reader
T2 construct: also called C half of Ala27-Ile8
T2 chain: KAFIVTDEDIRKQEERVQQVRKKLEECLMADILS
Procedure: (§1) A sample of wild-type GFP alone or a mixture of C′-GFP/C-mCherry, Ala27-lle8 and Thr6-Arg29 in equimolar quantities was diluted appropriately with phosphate-buffered saline (PBS) to make a total volume of 200 μL and a concentration of 4 μM. The sample was transferred to a 96-well plate and the absorbance at 510 nm 488 nm and luminescence (fluorescence) of each well were measured with the Synergy H1 hybrid multi-mode microplate reader (BioTek). After calculating the luminescence (A) per unit absorbance of the wild-type GFP alone sample and the luminescence (B) per unit absorbance of each sample, fluorescence resonance energy transfer efficiency was calculated by the following equation.

[3] = molecular target: T3, C_Thr6 (T6C) coil C mutant fused to mCherry (human); experiment: as above
T3 construct: also called C half of Thr6-Arg29
T3 chain: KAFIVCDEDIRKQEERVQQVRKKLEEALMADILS
Procedure: as §1

B1: coil C′-GFP-6xHis fusion protein (other)
chain: PEERERMIKQLKEELRLEEAKLVLLKKLRQSQIQKEATAQK
notes: also called GFP-C′; wild-type GFP-C′; not shown: green fluorescent protein (GFP) fused to the C-terminal of coil C′
Kd [1]: 10.7 nM | ΔH [1]: -2.6 kcal/mol | ΔS [1]: -52.4 cal/mol/deg

B2: C′_Ile8 (I8C) coil C′ mutant fused to GFP (other, not shown: large carriers)
chain: PEERERMCKQLKEELRLEEAKLVLLKKLRQSQIQKEATAQK
modifications: not fully specified
notes: also called 18C; C′ half of Ala27-Ile8
FRET efficiency, fold against wild-type (GFP-C′+mCherry-C) [2]: ≥ 2 fold

B3: C′_Arg29 (R29C) coil C′ mutant fused to GFP (other, not shown: large carriers)
chain: PEERERMIKQLKEELRLEEAKLVLLKKLCQSQIQKEATAQK
notes: also called C′ half of Thr6-Arg29
FRET efficiency, fold against wild-type (GFP-C′+mCherry-C) [3]: ≥ 2 fold
